Assay results as given in PMC13235457.

Tests used:
[1] = target: ZAP-70 tSH2 domain R190A mutant (human) (UniProt P43403); assay: ITC; 20 μM R190A tSH2 in the cell, 300 μM ITAM-ζ1-Y2P in the syringe; 20 °C; 20 mM HEPES pH 8.2, 5 mM β-mercaptoethanol, glycerol-free; 5 mM KCl; one-site model
[2] = target: ZAP-70 tSH2 domain R190A mutant (human) (UniProt P43403); assay: ITC; 20 μM R190A tSH2 in the cell, 300 μM ITAM-ζ1-Y2P in the syringe; 20 °C; 20 mM HEPES pH 8.2, 5 mM β-mercaptoethanol, glycerol-free; 150 mM NaCl; one-site model
[3] = target: ZAP-70 tSH2 domain R190A mutant (human) (UniProt P43403); assay: ITC; 20 μM R190A tSH2 in the cell, 300 μM ITAM-ζ1-Y2P in the syringe; 20 °C; 20 mM HEPES pH 8.2, 5 mM β-mercaptoethanol, glycerol-free; 20 mM KCl; one-site model

Kd [1]: 9.77 µM
Kd [2]: 6.33 µM
Kd [3]: 20.9 µM
Substance: ITAM-ζ1-Y2P peptide (doubly phosphorylated first ITAM of the CD3-ζ chain)
